Patent EP3271384B1 (dated 2023)

Target: T1, telomerase (hTERT) peptide on HLA-A*02:01 (human)
T1 peptide: RLVDDFLLV
Assay: multimer staining

- binding result: recognises
B1: TCR specific for the HLA-A2/hTERT865-873 complex (α5 and β3 chains, SEQ. ID. no. 1 and 2) (TCR, V domains shown)
Valpha: GEQVEQRPPHLSVREGDSAVIICTYTDPNSYYFFWYKQEPGAGLQLLMKVFSSTEINEGQGFTVLLNKKDKQLSLNLTAAHPGDSAVYFCAVRHDSGYNKLTFGKGTVLLVSP
Vbeta: NSKVIQTPRYLVKGQGQKAKMRCIPEKGHPVVFWYQQNKNNEFKFLINFQNQEVLQQIDMTEKRFSAECPSNSPCSLEIQSSEAGDSALYLCASSLSKGGFYEQYFGPGTRLTVL
